Measurements from article doi:10.1101/2023.01.30.526221.

Key:
[1] = target: basigin ectodomain (human); test: MST
[2] = target: full-length human basigin (human); test: MST
[3] = target: PfRIPR (Plasmodium falciparum) (UniProt O97302); test: SPR
[4] = target: PfRIPR tail (Plasmodium falciparum) (UniProt O97302); test: SPR

Substance | Kd [1] [nM] | Kd [2] [nM] | Kd [3] [nM] | Kd [4] [nM]
PfRH5 (natural protein) | 190 | 120 |  | 
PfCSS-PfPTRAMP complex |  |  | 3000 | 3000
